How the values were obtained:
[1] = molecular target: N-terminal domain of murine CNPase (residues -1-160) (mouse); assay: SEC; Superdex 75 10/300 GL; 20 mM Na-HEPES pH 8, 200 mM NaCl, 1 mM DTT; 250 µl at 1.7 mg/ml injected; molecular weight markers run under the same conditions
[2] = molecular target: full-length CNPase construct (residues -1-378), mouse 2',3'-cyclic nucleotide 3'-phosphodiesterase lacking the 22-residue C-terminal tail (mouse); assay: SEC-MALS; Sephadex S-200 column with online light scattering and refractive index detectors; 20 mM Bis-Tris-HCl pH 5.5, 300 mM NaCl, 1% glycerol, 1 mM DTT; monomer-dimer equilibrium

Row | stoichiometry N [1] | stoichiometry N [2] | Substance
1 | 2 | – | N-terminal domain of murine CNPase (residues -1-160) (domain or fragment)
2 | – | 2 | full-length CNPase construct (residues -1-378), mouse 2',3'-cyclic nucleotide 3'-phosphodiesterase lacking the 22-residue C-terminal tail (enzyme)
